Test results taken from the nanobody polyreactivity screen of Harvey et al. (2022).

assay: yeast display, Sf9 membrane polyspecificity reagent, FACS + sequencing; frameworks hold sequencing errors
How it was run: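 Sorting gates, low and high (top ~1%), were placed on anti-HA fluorescence to track expression and on streptavidin fluorescence to track reagent binding. A clone's polyreactivity label is taken from the gate it came out of. The reagent was 10% biotinylated, detergent-solubilized Sf9 membrane, applied for 1 hour at 4 °C to galactose-induced yeast display cells.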

Row | Sequence | polyreactivity (PSR sort gate)
1 | QDQLVESGGGLVQAGGSLRLSCAASGSTFHPYAMGWYRQAPGKERELVAAITFSGGSTYADSVKGRFTISRDNAKNTVYLQMNSLKPEDNAVYYCAAEWWYWRGWRDYWGQGTQVTVSS | low polyreactivity
2 | QDQLVESGGGLVQAGGSLRLSCAASGSTFKYNAMGWYRQAPGQERELVAAITSGGSTDYADSVKGRFTISRDNAMNHVYFQMNLLNPEDTAVYYCNDDIYPHDGYPWQGDYDYWGQGTQVTVSS | low polyreactivity
3 | QDQLVESGGGLVQAGGSLRLSCAASGSTFPDYAMGWYRQAPGKERELVAAISRSGGRTYYADSVKGRFTISRDNAKNTVYLQMNSLKPDDTAVYYCATSRVRSAGRDYWGQGTQVTVSS | high polyreactivity
4 | QDQLVESGGGLVQAGGSLRLSCAASGSTFSKNTMGWYRQAPGKERELVAAITTRGSSTYYADSVKGRFTISRDNAKNTVYLQMNSLKPEDTAVYYCNAPYRVTGGRYRWYDYWGQGTQVTVSS | high polyreactivity
5 | QDQLVESGGGLVQAGGSLRLSCAASGSTFSWYTMGWYRQAPGKERELVAAISKRGGSTYYADSVKGRFTISRDNAKNTVYLQMNSLKPEDTAVYYCNKDDERGKLYYWGQGTQVTVSS | high polyreactivity
6 | QDQLVESGGGLVQAGGSLRLSCAASGSTFVKNAMGWYRQAPGKERELVATISKSAGRTYYADSVKGRFTISRDNAKNTVYLQMNSLKPEDTAVYYCNVVQKRDFDYWGQGTQVTVSS | high polyreactivity
7 | QDQLVESGGGLVQAGGSLRLSCAASGSTFVRSVMGWYRQAPGKERELVAAISRRGGSTYYADSVKGRFTISRDNAKNTVYLQMNSQKPEDTAVYYCARTVGYRTLLESDSWGQGTQVTVAS | high polyreactivity
8 | QDQLVESGGGLVQAGGSLRLSCAASGSTFVRYDMGWYRQAPGKERELVADISWSGVSTYADSVKGRFTISRDNAKNTVYLQMNSLKPEDTAVYYCAKDSDLYQRGGYYWGQGTQVTVSS | low polyreactivity
9 | QDQLVESGGGLVQAGGSLRLSCAASGSTIRANAMGWYRQATGKERELVAAITKNGGSTYYADSVKGRFTISRDNAKNTVYLQMNSLKPEDTAVYYCAARRSSRRPPYYYWGQGTQVTVSS | high polyreactivity
10 | QDQLVESGGGLVQAGGSLRLSCAASGSTLRRYAMGWYRQAPGKERELVAAISGSGDSTYYADSVKGRFTISRDNAKNTVYLQMNSLKPEDTAVYYCNAVYAFNGYDYWGQGTQVTVSS | low polyreactivity
11 | QDQLVESGGGLVQAGGSLRLSCAASGSTLRYYAMGWYRQAPGKERELVAAITYSAGRTSYADSVKGRFTISRDNAKNTVYLQMNSLKPEDTAVYYCATQWHSYLRRYDYWGQGTQVTVSS | low polyreactivity
12 | QDQLVESGGGLVQAGGSLRLSCAASGSTLYSNTMGWYRPAPGKERELVAAICWSGASTYYADSVKGRFSISRDNAKNTVYLQMNSLKPEDTAVYYCAAGAYRNWGLYYYWGQGTQVTVSS | high polyreactivity
13 | QDQLVESGGGLVQAGGSLRLSCAASGSTYYYAMGWYRQAPGKERELVAAIRSGSRTYADSVKGRFTISRDNAKNTVYLQMNSLKPEDTAVYYCAATTWRHNFYSWGQGTQVTVSS | high polyreactivity
14 | QDQLVESGGGLVQAGGSLRLSCAASGYIFITKAMGLNRQAPGKERELVAAINSGGSTYYADSVKGRFTISRDNAKNTVYLQMKSLKPEDTAVYYCAAEYWVYYWHYYDYWGQGTQVTVSS | high polyreactivity
15 | QDQLVESGGGLVQAGGSLRLSCAASGYTFAYYAMGWYRQAPGKERELVARITSGGRTYYADSVKGRFTISRDNAKNTVYLQMNSLKPEDTAVYYCNAAWPFRYRRYDYWGQGTQVSVSS | high polyreactivity
16 | QDQLVESGGGLVQAGGSLRLSCAASRRTFSNYAMGWYRPAPGKERELVAAISGTGDNTYYADSVKVRFTISRDNANYTVYLQMNSLKPEDTAVYYCNTVYYGWPRCYGYWGQGTQVTVSS | high polyreactivity
17 | QDQLVESGGGLVQAGGSLRLSCAASVSIFWSYAMGRSRQAPGKEMELVASITRSGGSTYYADSVKGRFTISRDNAKNTVYLQMNSLKPEDTAVYYCNARRTTRWGSSKYEYDYCGQGTQVTVSS | high polyreactivity
18 | QDQLVESGGGLVQAGGSLRLSCAAYGYTFPWYAMGWYRQAPGKERELVAAISDTGTTNYADSVKGRFTISRDNAKNTVYLQMNSLKPEDTAVYYCNAKVTSYWYYPFNYWGQGTQVTVSS | low polyreactivity
19 | QDQLVESGGGLVQAGGSLRLSFAASGSIFGVNALGWYRQAPGKERELVAAISARGGSTYYADSVKGRFTISRDNAKNTVYLQMNSQKPEDTAVYYCAATFRARPRENYWGQGTQVTVSS | high polyreactivity
20 | QDQLVESGGGLVQAGGSLRLSFAASGSTFANYAMVWYRQAPGKEREWVAAISFSTVSTYYADSVKGRFTISRDNAKNTVYIQMNSLKPEDTAVYYCNTYYYGSRPSEDYWGQGTQVTVSS | high polyreactivity
21 | QDQLVESGGGLVQAGGSLRLSFAASGSTFVRYAMVWYRQAPGKERELVAAISRSGGSTYYADSVKGRFTISRDNAKNTVYLQMNSLKPEDTAVYYCAARLVYSGRDRGYDYWGQGTQVTVSS | high polyreactivity
22 | QDQLVESGGGLVQAGGSLRLSFAASGSTFWYNDMGWYRQAPGKERELVASISWSGGDTYYADSVKGRFTISRDNAKNSVYLQMNSLKPEDTEVYYCAKGNNWISRLMDYWGQGTQVTVSS | low polyreactivity

Row | Sequence | polyreactivity (PSR sort gate)
23 | QDQLVESGGGLVQAGGSLRLSIAASVRIFYANAMGWYRQAPGQERELVAAISSGGSTYYADSVKGRFTISRDNAKNTVYLQMNSLKPEDTAVFYCAVYTHKKVRPEYDYWGQGTQVTVSS | low polyreactivity
24 | QDQLVESGGGLVQAGGSLSLICAASGFNFALYAMGWYRQAPGKERELVAAINWSGGRTYYADSVKGRFTISRDNAKNTVYLQMNSLKPEDTAVYYCNRRAFSPYAANYYYWGQGTQVTVSS | high polyreactivity
25 | QDQLVESGGGLVQAGGSLSLSCAASGRTFAVYAMGWYRQAPGKEMELVAAITQSGGSTYYADSVKGRFTISRDNAKNTVYLQINSMKPEDTAVYYCAKTGRFPYTAGQSFGYDYWGQGTQVTVSS | low polyreactivity
26 | QDQLVESGGGLVQAGGTLRLSCAASGRIFPYNAMGWYRQAPGKERQLVAAISKSGVRTYYADSVKGRFTISRDNAKNTVYLQMNSLNPEETAVYYCAKLSPYGGDVGASEGPEYDYWGQGTQVTVSS | high polyreactivity
27 | QDQLVESGGGLVQAGGTLRLSCAASGSTFARYAMGWYRQAPGKERELVAAISRRGGSTYYADSVKGRFTISRDNAKITVDLQMNSLKPEDTAVYSCAARYGIISYLEYDYWGQGTQVTVSS | high polyreactivity
28 | QDQLVESGGGLVQAGVSLRLSCAASGSIFNRNAMGWYRQAPGKERELVADISWSGGSTYYADSVKGRFTISRDNAKNTVYLQMNSLKPEDTAVYYCADKSTGRWWRAGYDYWGQGTQVTVSS | high polyreactivity
29 | QDQLVESGGGLVQAGVSLRLSCPASGYNFDYYVMGWYRQAPGKERELVAAISSSGGSTYYADSVKGRFTISRDNAKNTVYLQMNSLKPEDTAVYYCATKPYPYYLYYYWGQGTQVTVSS | high polyreactivity
30 | QDQLVESGGGLVQARGSLRLRCAASGFIFIFNAMGWYRPAPGKERELVAAIDTSDDSTYYADSVKGRFTISRDNGKNTVYLQLNSLKPEDTAVYYCAAEELSNYEYWGQGTQVTVSS | low polyreactivity
31 | QDQLVESGGGLVQARGSLRLSSAATGSIFGTKAKGWYRQATGKEKEYDAAIDYSGSITRYADSVKGRFTISRDLSKNTVYLKMNSLKPEDTAVYYCAARSYAKDWGGYNYWGQGTQGTVSS | high polyreactivity
32 | QDQLVESGGGLVQPGGSLRLSCAASGSTFANYAMGWYRQAPGNERQLVAALDHSGGSTYYADSVKGRFTISRDNAKNPVYLQMNSLKPEDTAVYYCNVVNGWLDVSSPDDSLAYLYDYWGQGSQVTVSS | low polyreactivity
33 | QDQLVESGGGLVQSGGSLLLSCAPSGSTFVWYAMGWYRQERGKEMEFDATISWSDGSTYYADSVKGRFTISRDNPKNTVYLQMNILKPEDTAVYYCAAEQYGYYYSLWEYDNIWEGYWGPGTQVTVSS | low polyreactivity
34 | QDQLVESGGGSVQAGGSLRLSCAAYGRIYILYAMGWYRQAPGQERELVAAISWSGGSTYYADSVKGRFTISRDNAKKTVDGQRNSLKPEYTAVYYCNVVSKYKHTYDFDYWGQGTQVNVSS | high polyreactivity
35 | QDQLVESGGGVVQAGGSLRLSCAASGRIVGSKASGVSIEAPRKESEFVAAISSCSRTYYADSVKGLFSISRDNAKNTVYLQMNSLKPEDTAVYYCAKRGYFYSHRHGYEYGGQGTQVTVSS | high polyreactivity
36 | QDQLVESGGGVVQAGGSLRLSCDASGFIFYRYAMGWSRQAPGKERELLAAISRSGGSTYYADSVKRRFTISRDNAKYTVYLQLKSLKPEDTAVYYCATTGQRNLYLVNYSGQGTQVTVSS | low polyreactivity
37 | QDQLVESGGRLVQAVGSLRLSCAASGRIFTDYTMGWYRQAHGKERELVAAISYSGGSTYYADSVKGRFTISRDNAKNTVYLQMNSLKPEDTAVYYCNKDYYVHDGYGYWGQGTQVTVSS | low polyreactivity
38 | QDQLVESGGSLVQAGGSLRLSCASSGSIFKGNVMGCYRQAPGKERELVAAITWSAGSTYYADSVKGRFTISRDNAKNTVYLQMNRLKPEDTAVYYCNTDRYHGVDFDYWGQGTQVSVSS | high polyreactivity
39 | QDQLVESGGVLVQAGGSLRLSCAASGSTFYYYAMGWYRQAPRKEREFVSSISSRRTSTYYADSVKGRLTISRDNAKNNVYLQMNSLKREDTAVYYCADTQYRSDGWRYDYWGQGTQVTVSS | high polyreactivity
40 | QDQLVESGGVLVQARGSLRLSCAASASTLPGYAMGWYRQAPGKERELVAAISSSGTSTYYADSVKGRFTISRDNAKNTVYLQMNSLKPEDTAVYYCAAEGYRWVTAYYDYDEDYWGQGTQVTVSS | low polyreactivity
41 | QDQLVESGRGLVQAGGSLRLSCAASGNTFYRYTMGWYRQAPGNERELVDAISGRGGSTTYADSVKGRFTISRDPAKNTVYLQMKSLIPEDTAVYYCAAVTGGTAYYASTYYYWGQGTQVTVSL | high polyreactivity
42 | QDQLVESGVGLDQAGGSLRLSCAASGRIFRGSAMGWFSQAPGKEREFVAAITKNGGSTYYADSVNARFTISRDNANNTVYVQMNSLKPEDTAVYDCAVRAWDPDTGNSDYWGQGTQGTVSS | low polyreactivity
43 | QDQLVESGVGLVQAGGSLRLSCAASGYIFLLYDMGWYRQAPGKEREMVATITSGGGTYYADSVKGRVTISRDNAKNTVYLQMNSLIPEDTAVYYCNADLYRWTGRSYWDKHGSWGQGTQVTVSS | low polyreactivity
